From US20250304973, “HIGH-AFFINITY THROMBIN APTAMERS AND METHODS OF USE” (Ayass Bioscience LLC, published 2025)

Columns and labels:
thrombin = thrombin (Rattus norvegicus, UniProt P18292;P18292 P18292:311-359,P18292:360-617); assay: BLI; biotinylated aptamer on streptavidin sensor, 1:1 fit; printed as "-0.6 nM"; details: label: 5' biotin (ELISA, BLI); predicted hairpin, possible G4
Source text: The biosensors were then exposed to varying concentrations of rat thrombin protein, allowing real-time monitoring of thrombin binding to the aptamer. Kinetic parameters were derived by fitting the BLI binding curves to a 1:1 binding model.

alpha-thrombin (native) = alpha-thrombin (native) (Homo sapiens, UniProt P00734;P00734 P00734:315-363,P00734:364-622); assay: ELONA; 20 mM Tris pH 7.5, 150 mM NaCl, 0.1% BSA, 0.1% Tween 20, salmon sperm DNA, RT; competed by 100-fold unlabeled aptamer

GCGGTGTTGCTGGGGTTGGGAGGTTGGAGGAAGCAATCGC (ssDNA) [AYA1809002]
Kd (thrombin): ~0.6 nM
Kd (alpha-thrombin (native)): 10 nM
